Measurements from publication PMC10119233.
pKd: −log10 of the molar value.

Experiments:
[1] = molecular target: Recombinant Fc-tagged hDLL4 (human) (UniProt Q9NR61); test: SPR; Biacore T200, CM5 chip; hDLL4-Fc or hJAG1-Fc on the chip (amine coupling by the results; captured after immobilising human IgG Fc by the methods), up to 20,000 RU; N1_(10-14)Fc or N4_(10-14)Fc as analyte, multi-cycle kinetics; HBS-N (10 mM HEPES, 150 mM NaCl), 0.005% Tween 20, 1 mM CaCl2, 2 mM MgCl2, pH 7.4; 25 °C, 25 μl/min; KD = kd/ka
[2] = molecular target: N4_(10-14)Fc, Notch4 EGF-like repeats 10–14 fused to human IgG Fc (human) (UniProt Q99466); test: mass photometry; purified Notch decoys; oligomeric state
[3] = molecular target: N1_(10-14)Fc, Notch1 EGF-like repeats 10–14 fused to human IgG Fc (human) (UniProt P46531); test: as above

Recombinant Fc-tagged hDLL4 (human), sequence (Q9NR61 27-529): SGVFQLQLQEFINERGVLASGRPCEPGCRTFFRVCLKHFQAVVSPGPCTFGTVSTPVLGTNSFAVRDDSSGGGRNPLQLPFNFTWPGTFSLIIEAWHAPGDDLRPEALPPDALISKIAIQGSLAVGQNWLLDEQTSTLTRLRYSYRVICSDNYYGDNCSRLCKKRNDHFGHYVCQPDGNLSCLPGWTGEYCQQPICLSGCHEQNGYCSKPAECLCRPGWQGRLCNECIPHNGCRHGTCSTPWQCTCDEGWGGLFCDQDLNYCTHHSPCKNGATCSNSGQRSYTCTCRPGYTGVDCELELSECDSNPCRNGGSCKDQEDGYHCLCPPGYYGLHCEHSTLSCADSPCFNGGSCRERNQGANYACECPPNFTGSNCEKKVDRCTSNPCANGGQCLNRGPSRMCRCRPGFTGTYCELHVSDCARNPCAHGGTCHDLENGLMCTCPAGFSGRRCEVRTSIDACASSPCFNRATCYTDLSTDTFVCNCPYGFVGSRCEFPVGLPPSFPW

N4_(10-14)Fc, Notch4 EGF-like repeats 10–14 fused to human IgG Fc (from UniProt Q99466 24-2003) (Fc fusion)
pKd [1]: 6.02 | stoichiometry N [2]: 2

N1_(10-14)Fc, Notch1 EGF-like repeats 10–14 fused to human IgG Fc (from UniProt P46531 19-2555) (Fc fusion)
stoichiometry N [3]: 2
